Starred links: 1 amine or outer side, 2 acyl side, 3 side chain; linkers in the order of their positions; H or OH if unused. Non-standard residues stand in square brackets, D forms with d. Residues, ends and D or L forms follow the SMILES beside them. *: point of attachment. X3 = CC(C)(C)[Si](F)(c1ccc(C(=O)NC[C@@H](NC(=O)CN2CCN(CC(=O)O)CCN(CC(=O)O)CCN(CC(=O)O)CC2)C(=O)*)cc1)C(C)(C)C; DOTA = O=C(O)CN1CCN(CC(=O)O)CCN(CC(=O)*)CCN(CC(=O)O)CC1; d(γGlu) = O=C(O)[C@@H](CCC(=O)[*:2])N[*:1]; 1Nal = N[C@@H](Cc1cccc2ccccc12)C(=O)O; PEG6 = NCCOCCOCCOCCOCCOCCOCCC(=O)O; PEG5 = NCCOCCOCCOCCOCCOCCC(=O)O; NMeNle = CCCC[C@H](NC)C(=O)O; dOrn = NCCC[C@@H](N)C(=O)O; PEG3 = NCCOCCOCCOCCC(=O)O; Nle = CCCC[C@H](N)C(=O)O; AEEA = NCCOCCOCC(=O)O
What was measured:
CCK-2R = molecular target: T1, CCK-2R (Rattus norvegicus, UniProt P30553); assay: Determination of IC50: CCK-2R affinity on AR4-2J cells, competition with [^177Lu]Lu-DOTA-PP-F11N; type: binding; details: AR4-2J cells; ^natLu-labeled; read-out: IC50 [nM] (n = 3), ^natLu-labeled
T1 construct: The CCK-2R expressing rat pancreatic tumor cells AR4-2J; host or cells: AR4-2J rat pancreatic tumor cells
T1 sequence (P30553 1-452): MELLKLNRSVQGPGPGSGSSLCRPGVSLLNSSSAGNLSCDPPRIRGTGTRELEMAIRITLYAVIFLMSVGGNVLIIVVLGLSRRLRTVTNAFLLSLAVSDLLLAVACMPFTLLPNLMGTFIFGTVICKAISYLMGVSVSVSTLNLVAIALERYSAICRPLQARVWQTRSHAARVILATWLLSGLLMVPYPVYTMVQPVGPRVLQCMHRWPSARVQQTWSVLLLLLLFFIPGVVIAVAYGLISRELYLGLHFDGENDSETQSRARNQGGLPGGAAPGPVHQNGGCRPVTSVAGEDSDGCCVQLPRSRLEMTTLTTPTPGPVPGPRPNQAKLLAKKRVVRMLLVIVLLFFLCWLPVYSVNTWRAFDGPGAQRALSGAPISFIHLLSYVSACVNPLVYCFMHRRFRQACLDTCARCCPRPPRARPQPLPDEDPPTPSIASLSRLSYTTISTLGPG
Description: AR4-2J cells were harvested 24 ± 2 h before the experiment and seeded in 24-well plates (2.0 × 10^5 cells in 1 mL/well). After removal of the nutrient medium (RPMI 1640, 5 mM L-Gln, 5 mL non-essential amino acids (100×), 10% FCS), the cells were washed once with 500 µL PBS. Thereafter, 200 µL nutrient medium (5% BSA, v/v) were added. Next, 25 µL per well of solutions containing either nutrient medium (5% BSA, v/v) as control or the respective compound in increasing concentration (10^-10 - 10^-4 M), were added with subsequent addition of 25 µL [^177Lu]Lu-DOTA-PP-F11N (0.3 pmol/well).
All experiments were performed in triplicate for each concentration. After 3 h incubation at 37 °C, the experiment was terminated by removal of the medium and consecutive rinsing with 300 µL PBS. The media of both steps were combined in one fraction and represent the amount of free radiolabeled reference. Afterwards, the cells were lysed with 300 µL of 1 M NaOH for at least 15 min and united with the 300 µL NaOH of the following washing step. Quantification of bound and free radiolabeled reference was accomplished in a γ-counter. IC50 determination for each conjugate was repeated twice.

[1] = n-Octanol-PBS distribution coefficient (logD7.4); type: physicochemical; details: pH = 7.4, ^177Lu-labeled
Description: Approximately 1 MBq of the labeled tracer was dissolved in 1 mL of a 1/1 mixture (v/v) of phosphate buffered saline (PBS, pH = 7.4) and n-octanol in an Eppendorf tube (1.5 mL). After vigorous mixing of the suspension for 3 min at rt, the vial was centrifuged at 9,000 rpm for 5 min (Biofuge 15, Heraeus Sepatech, Osterode, Germany) and 200 µL aliquots of both layers were measured in a γ-counter. The experiment was repeated at least five times.

SMILES | IC50 (CCK-2R) [nM] | logD7.4 (n ≥ 5), ^177Lu-labeled [1] | logD7.4 (n ≥ 5), ^177Lu-labeled ([1]; listed as [^177Lu]Lu-DOTA-CCK-63) | logD7.4 (n ≥ 5), ^177Lu-labeled ([1]; listed as [^177Lu]Lu-DOTA-CCK-77)
CCCC[C@@H](C(=O)N[C@@H](CC(=O)O)C(=O)N[C@@H](Cc1cccc2ccccc12)C(N)=O)N(C)C(=O)[C@H](Cc1c[nH]c2ccccc12)NC(=O)CNC(=O)[C@H](Cc1ccc(O)cc1)NC(=O)CNC(=O)CNC(=O)CN1CCN(CC(=O)O)CCN(CC(=O)O)CCN(CC(=O)O)CC1 [DOTA-CCK-56, DOTA-(Gly)2-Tyr-Gly-Trp-(N-Me)NIe-Asp-1-Nal-NH2] ({DOTA}-GGYGW[NMeNle]D[1Nal]-NH2) | 4.9 ± 0.8 | −1.38 ± 0.07 | – | –
CCCC[C@@H](C(=O)N[C@@H](CC(=O)O)C(=O)N[C@@H](Cc1cccc2ccccc12)C(N)=O)N(C)C(=O)[C@H](Cc1c[nH]c2ccccc12)NC(=O)CNC(=O)[C@H](Cc1ccc(O)cc1)NC(=O)[C@H](C)NC(=O)CNC(=O)CN1CCN(CC(=O)O)CCN(CC(=O)O)CCN(CC(=O)O)CC1 [DOTA-CCK-57, DOTA-Gly-Ala-Tyr-Gly-Trp-(N-Me)Nle-Asp-1-Nal-NH2] ({DOTA}-GAYGW[NMeNle]D[1Nal]-NH2) | 5.6 ± 0.5 | −1.26 ± 0.08 | – | –
CCCC[C@@H](C(=O)N[C@@H](CC(=O)O)C(=O)N[C@@H](Cc1cccc2ccccc12)C(N)=O)N(C)C(=O)[C@H](Cc1c[nH]c2ccccc12)NC(=O)CNC(=O)[C@H](Cc1ccc(O)cc1)NC(=O)CNC(=O)CC[C@@H](NC(=O)CN1CCN(CC(=O)O)CCN(CC(=O)O)CCN(CC(=O)O)CC1)C(=O)O [DOTA-CCK-59, DOTA-γ-glu-Gly-Tyr-Gly-Trp-(N-Me)Nle-Asp-1-Nal-NH2] ({DOTA-d(γGlu)}-GYGW[NMeNle]D[1Nal]-NH2) | 4.2 ± 0.5 | −2.63 ± 0.05 | – | –
CCCC[C@@H](C(=O)N[C@@H](CC(=O)O)C(=O)N[C@@H](Cc1cccc2ccccc12)C(N)=O)N(C)C(=O)[C@H](Cc1c[nH]c2ccccc12)NC(=O)CNC(=O)CNC(=O)[C@H](C)NC(=O)CC[C@@H](NC(=O)CN1CCN(CC(=O)O)CCN(CC(=O)O)CCN(CC(=O)O)CC1)C(=O)O [DOTA-CCK-60, DOTA-γ-glu-Ala-(Gly)2-Trp-(N-Me)Nle-Asp-1-Nal-NH2] ({DOTA-d(γGlu)}-AGGW[NMeNle]D[1Nal]-NH2) | 7.9 ± 0.43 | −2.56 ± 0.09 | – | –
CCCC[C@@H](C(=O)N[C@@H](CC(=O)O)C(=O)N[C@@H](Cc1cccc2ccccc12)C(N)=O)N(C)C(=O)[C@H](Cc1c[nH]c2ccccc12)NC(=O)CNC(=O)CNC(=O)CNC(=O)CC[C@@H](NC(=O)CN1CCN(CC(=O)O)CCN(CC(=O)O)CCN(CC(=O)O)CC1)C(=O)O [DOTA-CCK-62, DOTA-γ-glu-(Gly)3-Trp-(N-Me)Nle-Asp-1-Nal-NH2] ({DOTA-d(γGlu)}-GGGW[NMeNle]D[1Nal]-NH2) | 8.2 ± 1.3 | −2.66 ± 0.06 | – | –
CCCC[C@@H](C(=O)N[C@@H](CC(=O)O)C(=O)N[C@@H](Cc1cccc2ccccc12)C(N)=O)N(C)C(=O)[C@H](Cc1c[nH]c2ccccc12)NC(=O)CCOCCOCCOCCNC(=O)CC[C@@H](NC(=O)CN1CCN(CC(=O)O)CCN(CC(=O)O)CCN(CC(=O)O)CC1)C(=O)O [DOTA-CCK-63, DOTA-γ-glu-(PEG)2-Trp-(N-Me)Nle-Asp-1-Nal-NH2] ({DOTA-d(γGlu)-PEG3}-W[NMeNle]D[1Nal]-NH2) | 4.8 ± 1.1 | −3.03 ± 0.09 | < -3 | –
CCCC[C@@H](C(=O)N[C@@H](CC(=O)O)C(=O)N[C@@H](Cc1cccc2ccccc12)C(N)=O)N(C)C(=O)[C@H](Cc1c[nH]c2ccccc12)NC(=O)COCCOCCNC(=O)CC[C@@H](NC(=O)CN1CCN(CC(=O)O)CCN(CC(=O)O)CCN(CC(=O)O)CC1)C(=O)O [DOTA-CCK-77, DOTA-γ-glu-PEG-Trp-(N-Me)Nle-Asp-1-Nal-NH2] ({DOTA-d(γGlu)-AEEA}-W[NMeNle]D[1Nal]-NH2) | – | −3.09 ± 0.06 | – | < -3
CCCC[C@@H](C(=O)N[C@@H](CC(=O)O)C(=O)N[C@@H](Cc1cccc2ccccc12)C(N)=O)N(C)C(=O)[C@H](Cc1c[nH]c2ccccc12)NC(=O)CCOCCOCCOCCOCCOCCNC(=O)CC[C@@H](NC(=O)CN1CCN(CC(=O)O)CCN(CC(=O)O)CCN(CC(=O)O)CC1)C(=O)O [DOTA-CCK-78, DOTA-γ-glu-(PEG)4-Trp-(N-Me)Nle-Asp-1-Nal-NH2] ({DOTA-d(γGlu)-PEG5}-W[NMeNle]D[1Nal]-NH2) | 6.7 ± 0.8 | −2.61 ± 0.06 | – | –
CCCC[C@@H](C(=O)N[C@@H](CC(=O)O)C(=O)N[C@@H](Cc1cccc2ccccc12)C(N)=O)N(C)C(=O)[C@H](Cc1c[nH]c2ccccc12)NC(=O)CCOCCOCCOCCOCCOCCOCCNC(=O)CC[C@@H](NC(=O)CN1CCN(CC(=O)O)CCN(CC(=O)O)CCN(CC(=O)O)CC1)C(=O)O [DOTA-CCK-79, DOTA-γ-glu-(PEG)5-Trp-(N-Me)Nle-Asp-1-Nal-NH2] ({DOTA-d(γGlu)-PEG6}-W[NMeNle]D[1Nal]-NH2) | 7 ± 0.6 | −2.59 ± 0.05 | – | –
CCCC[C@H](NC(=O)[C@H](Cc1c[nH]c2ccccc12)NC(=O)CNC(=O)[C@H](Cc1ccc(O)cc1)NC(=O)[C@H](C)NC(=O)CC[C@@H](NC(=O)CC[C@@H](NC(=O)CC[C@@H](NC(=O)CC[C@@H](NC(=O)CC[C@@H](NC(=O)[C@H](N)CCCNC(=O)[C@@H](CNC(=O)c1ccc([Si](F)(C(C)(C)C)C(C)(C)C)cc1)NC(=O)CN1CCN(CC(=O)O)CCN(CC(=O)O)CCN(CC(=O)O)CC1)C(=O)O)C(=O)O)C(=O)O)C(=O)O)C(=O)O)C(=O)N[C@@H](CC(=O)O)C(=O)N[C@@H](Cc1ccccc1)C(N)=O [DOTA-MG-SiFA-27, DOTA-dap(SiFA)-γ-orn-(γ-glu)5-F11N] (H-[dOrn](X3)[d(γGlu)][d(γGlu)][d(γGlu)][d(γGlu)][d(γGlu)]AYGW[Nle]DF-NH2) | – | −1.90 ± 0.10 | – | –
CCCC[C@H](NC(=O)[C@H](Cc1c[nH]c2ccccc12)NC(=O)CNC(=O)[C@H](Cc1ccc(O)cc1)NC(=O)[C@H](C)NC(=O)CC[C@@H](NC(=O)CC[C@@H](NC(=O)CC[C@@H](NC(=O)CC[C@@H](NC(=O)CC[C@@H](NC(=O)CC[C@@H](NC(=O)CC[C@@H](NC(=O)[C@H](N)CCCNC(=O)[C@@H](CNC(=O)c1ccc([Si](F)(C(C)(C)C)C(C)(C)C)cc1)NC(=O)CN1CCN(CC(=O)O)CCN(CC(=O)O)CCN(CC(=O)O)CC1)C(=O)O)C(=O)O)C(=O)O)C(=O)O)C(=O)O)C(=O)O)C(=O)O)C(=O)N[C@@H](CC(=O)O)C(=O)N[C@@H](Cc1ccccc1)C(N)=O [DOTA-MG-SiFA-28, DOTA-dap(SiFA)-γ-orn-(γ-glu)7-F11N] | – | −1.81 ± 0.10 | – | –
CCCC[C@H](NC(=O)[C@H](Cc1c[nH]c2ccccc12)NC(=O)CNC(=O)[C@H](Cc1ccc(O)cc1)NC(=O)[C@H](C)NC(=O)CC[C@@H](NC(=O)CC[C@@H](NC(=O)CC[C@@H](NC(=O)CC[C@@H](NC(=O)CC[C@@H](NC(=O)CC[C@@H](NC(=O)CC[C@@H](NC(=O)[C@H](N)CCCCNC(=O)[C@@H](CNC(=O)c1ccc([Si](F)(C(C)(C)C)C(C)(C)C)cc1)NC(=O)CN1CCN(CC(=O)O)CCN(CC(=O)O)CCN(CC(=O)O)CC1)C(=O)O)C(=O)O)C(=O)O)C(=O)O)C(=O)O)C(=O)O)C(=O)O)C(=O)N[C@@H](CC(=O)O)C(=O)N[C@@H](Cc1ccccc1)C(N)=O [DOTA-MG-SiFA-30, DOTA-dap(SiFA)-γ-lys-(γ-glu)7-F11N] | – | −1.74 ± 0.03 | – | –
CCCC[C@H](NC(=O)[C@H](Cc1c[nH]c2ccccc12)NC(=O)CNC(=O)[C@H](Cc1ccc(O)cc1)NC(=O)[C@H](C)NC(=O)CC[C@@H](NC(=O)CC[C@@H](NC(=O)CC[C@@H](NC(=O)CC[C@@H](NC(=O)CC[C@@H](NC(=O)CC[C@@H](NC(=O)CC[C@@H](NC(=O)[C@H](N)CCCCNC(=O)[C@@H](CNC(=O)c1ccc([Si](F)(C(C)(C)C)C(C)(C)C)cc1)NC(=O)[C@H](N)CCCCNC(=O)CN1CCN(CC(=O)O)CCN(CC(=O)O)CCN(CC(=O)O)CC1)C(=O)O)C(=O)O)C(=O)O)C(=O)O)C(=O)O)C(=O)O)C(=O)O)C(=O)N[C@@H](CC(=O)O)C(=O)N[C@@H](Cc1ccccc1)C(N)=O [DOTA-MG-SiFA-31, DOTA-γ-lys-dap(SiFA)-γ-lys-(γ-glu)7-F11N] | – | −1.88 ± 0.10 | – | –

Reference: patent EP4631959A2, “NOVEL MINIGASTRIN-DERIVED CHOLECYSTOKININ 2 RECEPTOR BINDING MOLECULES FOR IMAGING AND TARGETED RADIOTHERAPY” (priority 2022, dated 2024)
